# Laboratory results reported in PMC4498904, “Mutagenesis Study Reveals the Rim of Catalytic Entry Site of HDAC4 and -5 as the Major Binding Surface of SMRT Corepressor” (PLoS ONE, 2015).
# B1: KGC-HDAC5c (C-terminal portion of Kusabira Green protein fused with HDAC5c), wild type [human] / KGN-SRD3c (N-terminal portion of Kusabira Green protein fused with SRD3c) [human] (parent)
# chain 1: LFTTGVVYDTFMLKHQCMCGNTHVHPEHAGRIQSIWSRLQETGLLSKCERIRGRKATLDEIQTVHSEYHTLLYGTSPLNRQKLDSKKLLGPISQKMYAVLPCGGIGVDSDTVWNEMHSSSAVRMAVGCLLELAFKVAAGELKNGFAIIRPPGHHAEESTAMGFCFFNSVAITAKLLQQKLNVGKVLIVDWDIHHGNGTQQAFYNDPSVLYISLHRYDNGNFFPGSGAPEEVGGGPGVGYNVNVAWTGGVDPPIGDVEYLTAFRTVVMPIAHEFSPDVVLVSAGFDAVEGHLSPLGGYSVTARCFGHLTRQLMTLAGGRVVLALEGGHDLTAICDASEACVSALLSVELQPLDEAVLQQKPNINAVATLEKVIEIQSKHWSCVQKFAAGLGRSLREAQAGETEEAETVS
# chain 2: EGGMSVTQCSKEDGRSSSGPPHETAAPKRTYDMMEGRVGRAISSASIEGLMGRAIPPERHSPHHLKEQHHIRGSITQGIPRSYVEAQEDYLRREAKLLKREGTPPPPPPSRDLTEAYKTQALGPLKLKPAHEGLVATVKEAGRSIHEIPREELRHTPELPLAPRPLKEGSITQGTPLKYDTGASTTGSKKHDVRSLIGSPGRTFPPVHPLDVMADARALERACY
# B2: KGC-HDAC4c (C-terminal portion of Kusabira Green protein fused with HDAC4c), wild type [human] / KGN-SRD3c (N-terminal portion of Kusabira Green protein fused with SRD3c) [human] (parent)
# chain 1: PRFTTGLVYDTLMLKHQCTCGSSSSHPEHAGRIQSIWSRLQETGLRGKCECIRGRKATLEELQTVHSEAHTLLYGTNPLNRQKLDSKKLLGSLASVFVRLPCGGVGVDSDTIWNEVHSAGAARLAVGCVVELVFKVATGELKNGFAVVRPPGHHAEESTPMGFCYFNSVAVAAKLLQQRLSVSKILIVDWDVHHGNGTQQAFYSDPSVLYMSLHRYDDGNFFPGSGAPDEVGTGPGVGFNVNMAFTGGLDPPMGDAEYLAAFRTVVMPIASEFAPDVVLVSSGFDAVEGHPTPLGGYNLSARCFGYLTKQLMGLAGGRIVLALEGGHDLTAICDASEACVSALLGNELDPLPEKVLQQRPNANAVRSMEKVMEIHSKYWRCLQRTTSTAGRSLIEAQTCENEEAET
# chain 2: B1 chain 2
# Variants of: B1
# Test: BiFC assay (fluorescence spectrophotometer)
# Details: HEK293 cells, KGN-SRD3c (1 μg) and KGC-HDAC5c mutant (1 μg), 48 hours of transfection, whole cell lysates, parent: 9.3, read off a plot
row,response [RFU],Variant
1,4.4,chain 1 LFTTGVVYDTFMLKHQWMCGNTHVHPEHAGRIQSIWSRLQETGLLSKCERIRGRKATLDEIQTVHSEYHTLLYGTSPLNRQKLDSKKLLGPISQKMYAVLPCGGIGVDSDTVWNEMHSSSAVRMAVGCLLELAFKVAAGELKNGFAIIRPPGHHAEESTAMGFCFFNSVAITAKLLQQKLNVGKVLIVDWDIHHGNGTQQAFYNDPSVLYISLHRYDNGNFFPGSGAPEEVGGGPGVGYNVNVAWTGGVDPPIGDVEYLTAFRTVVMPIAHEFSPDVVLVSAGFDAVEGHLSPLGGYSVTARCFGHLTRQLMTLAGGRVVLALEGGHDLTAICDASEACVSALLSVELQPLDEAVLQQKPNINAVATLEKVIEIQSKHWSCVQKFAAGLGRSLREAQAGETEEAETVS [chain 1 C17W]
2,4.7,chain 1 LFTTGVVYDTFMLKHQCMCGNTHVHPEHAGRIQSIWSRLQETGLLSKCERIRGRKATLDEIQTVHSEYHTLLYGTSPLNRQKLDSKKLLGPISQKMYAVLPYGGIGVDSDTVWNEMHSSSAVRMAVGCLLELAFKVAAGELKNGFAIIRPPGHHAEESTAMGFCFFNSVAITAKLLQQKLNVGKVLIVDWDIHHGNGTQQAFYNDPSVLYISLHRYDNGNFFPGSGAPEEVGGGPGVGYNVNVAWTGGVDPPIGDVEYLTAFRTVVMPIAHEFSPDVVLVSAGFDAVEGHLSPLGGYSVTARCFGHLTRQLMTLAGGRVVLALEGGHDLTAICDASEACVSALLSVELQPLDEAVLQQKPNINAVATLEKVIEIQSKHWSCVQKFAAGLGRSLREAQAGETEEAETVS [chain 1 C102Y]
3,4,chain 1 LFTTGVVYDTFMLKHQCMCGNTHVHPEHAGRIQSIWSRLQETGLLSKCERIRGRKATLDEIQTVHSEYHTLLYGTSPLNRQKLDSKKLLGPISQKMYAVLPCGGIGVDSDTVWNEMHSSSAVRMAVGCLLELAFKVAAGELKNGFAIIRPPGHHAEESTAMGFCFFNSVAITAKLLQQKLNVGKVLIVDWDIRHGNGTQQAFYNDPSVLYISLHRYDNGNFFPGSGAPEEVGGGPGVGYNVNVAWTGGVDPPIGDVEYLTAFRTVVMPIAHEFSPDVVLVSAGFDAVEGHLSPLGGYSVTARCFGHLTRQLMTLAGGRVVLALEGGHDLTAICDASEACVSALLSVELQPLDEAVLQQKPNINAVATLEKVIEIQSKHWSCVQKFAAGLGRSLREAQAGETEEAETVS [chain 1 H193R]

# Variants of: B2
# Test: BiFC assay (fluorescence spectrophotometer)
# Details: HEK293 cells, KGN-SRD3c (1 μg) and KGC-HDAC4c mutant (1 μg), 48 hours of transfection, whole cell lysates, parent: 8, read off a plot
row,response [RFU],Variant
1,4.3,chain 1 PRFTTGLVYDTLMLKHQCTCGSSSSHPEHAGRIQSIWSRLQETGLRGKCECIRGRKATLEELQTVHSEAHTLLYGTNPLNRQKLDSKKLLGSLASVFVRLPCGGVGVDSDTIWNEVHSAGAARLAVGCVVELVFKVATGELKNGFAVVRPPGHHAEESTPMGFCYFNSVAVAAKLLQQRLSVSKILIVDWDVLHGNGTQQAFYSDPSVLYMSLHRYDDGNFFPGSGAPDEVGTGPGVGFNVNMAFTGGLDPPMGDAEYLAAFRTVVMPIASEFAPDVVLVSSGFDAVEGHPTPLGGYNLSARCFGYLTKQLMGLAGGRIVLALEGGHDLTAICDASEACVSALLGNELDPLPEKVLQQRPNANAVRSMEKVMEIHSKYWRCLQRTTSTAGRSLIEAQTCENEEAET [chain 1 H193L]
2,4.1,chain 1 PRFTTGLVYDTLMLKHQCTYGSSSSHPEHAGRIQSIWSRLQETGLRGKCECIRGRKATLEELQTVHSEAHTLLYGTNPLNRQKLDSKKLLGSLASVFVRLPCGGVGVDSDTIWNEVHSAGAARLAVGCVVELVFKVATGELKNGFAVVRPPGHHAEESTPMGFCYFNSVAVAAKLLQQRLSVSKILIVDWDVHHGNGTQQAFYSDPSVLYMSLHRYDDGNFFPGSGAPDEVGTGPGVGFNVNMAFTGGLDPPMGDAEYLAAFRTVVMPIASEFAPDVVLVSSGFDAVEGHPTPLGGYNLSARCFGYLTKQLMGLAGGRIVLALEGGHDLTAICDASEACVSALLGNELDPLPEKVLQQRPNANAVRSMEKVMEIHSKYWRCLQRTTSTAGRSLIEAQTCENEEAET [chain 1 C20Y]
3,5,chain 1 PRFTTGLVYDTLMLKHQYTCGSSSSHPEHAGRIQSIWSRLQETGLRGKCECIRGRKATLEELQTVHSEAHTLLYGTNPLNRQKLDSKKLLGSLASVFVRLPCGGVGVDSDTIWNEVHSAGAARLAVGCVVELVFKVATGELKNGFAVVRPPGHHAEESTPMGFCYFNSVAVAAKLLQQRLSVSKILIVDWDVHHGNGTQQAFYSDPSVLYMSLHRYDDGNFFPGSGAPDEVGTGPGVGFNVNMAFTGGLDPPMGDAEYLAAFRTVVMPIASEFAPDVVLVSSGFDAVEGHPTPLGGYNLSARCFGYLTKQLMGLAGGRIVLALEGGHDLTAICDASEACVSALLGNELDPLPEKVLQQRPNANAVRSMEKVMEIHSKYWRCLQRTTSTAGRSLIEAQTCENEEAET [chain 1 C18Y]
4,4.5,chain 1 PRFTTGLVYDTLMLKHQCTCGSSSSHPEHAGRIQSIWSRLQETGLRGKCECIRGRKATLEELQTVHSEAHTLLYGTNPLNRQKLDSKKLLGSLASVFVRLPYGGVGVDSDTIWNEVHSAGAARLAVGCVVELVFKVATGELKNGFAVVRPPGHHAEESTPMGFCYFNSVAVAAKLLQQRLSVSKILIVDWDVHHGNGTQQAFYSDPSVLYMSLHRYDDGNFFPGSGAPDEVGTGPGVGFNVNMAFTGGLDPPMGDAEYLAAFRTVVMPIASEFAPDVVLVSSGFDAVEGHPTPLGGYNLSARCFGYLTKQLMGLAGGRIVLALEGGHDLTAICDASEACVSALLGNELDPLPEKVLQQRPNANAVRSMEKVMEIHSKYWRCLQRTTSTAGRSLIEAQTCENEEAET [chain 1 C102Y]
